Source: the supplement of paper PMC11908140

B1: library; numbered along this chain (parent)
chain: MRKPRAAVGSGHRKQAASQEGRQKHAKNNSQAKPSACDGLARQPEEVVLQASVSSYHLFRDVAEVTAFRGSLLSWYDQEKRDLPWRRRAEDEMDLDRRAYAVWVSEVMLQQTQVATVINYYTGWMQKWPTLQDLASASLEEVNQLWAGLGYYSRGRRLQEGARKVVEELGGHMPRTAETLQQLLPGVGRYTAGAIASIAFGQATGVVDGNVARVLCRVRAIGADPSSTLVSQQLWGLAQQLVDPARPGDFNQAAMELGATVCTPQRPLCSQCPVESLCRARQRVEQEQLLASGSLSGSPDVEECAPNTGQCHLCLPPSEPWDQTLGVVNFPRKASRKPPREESSATCVLEQPGALGAQILLVQRPNSGLLAGLWEFPSVTWEPSEQLQRKALLQELQRWAGPLPATHLRHLGEVVHTFSHIKLTYQVYGLALEGQTPVTTVPPGARWLTQEEFHTAAVSTAMKKVFRVYQGQQPGTCMGSKRSQVSSPCSRKKPRMGQQVLDNFFRSHISTDAHSLNSAAQ

Variants of: B1
Test: 8OG:A repair function score (normalized; synonymous = 0, nonsense = -1) (normalized log-likelihood score); higher = more repair activity (WT-like)
Conditions: with 8OG:A DNA repair reporter (GFP) in HEK-293 MUTYH KO cells
Protocol: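 Saturation mutagenesis (NNN codon scan) of the MUTYH cDNA (521-aa nuclear isoform NM_001048174.1 / NP_001041639), stably expressed under doxycycline induction in HEK-293 MUTYH knockout cells. Cells were co-transfected with an 8OG:A-bearing GFP repair reporter plus mCherry and sorted 72 h later into GFP+ and GFP− bins, three replicates per tile. The Rosace log2 enrichment (GFP+ vs GFP−) was converted per tile to a normalized function score with synonymous variants centered at 0 and nonsense variants (codons 1-471) at -1; low-abundance variants were removed.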

8OG:A repair function score of substitutions, site by site:
M93: I -0.0705 | C 0.00101 | F 0.00598 | N 0.00661 | T 0.00168 | H -0.01 | E 0.0066 | P -0.0336 | S -0.0236 | K 0.00623 | V 0.00114 | Q 0.00486 | Y -0.0084 | R 0.00556 | G -0.0185 | W -0.00669 | L -0.0284 | A 0.00637 | D 0.0046
R98: C -0.578 | I -0.145 | F -0.114 | H -0.232 | P -0.714 | W -0.0663 | S -0.2 | V -0.16 | T -0.164 | A -0.175 | M -0.316 | Q -0.236 | K -0.0169 | E -0.275 | L -0.107 | G -0.574 | Y -0.0815 | N -0.122 | D -0.438
D96: L -0.43 | M -0.441 | F -0.446 | Y -0.308 | A -0.536 | P -0.177 | T -1.12 | I -0.341 | K -0.758 | C -0.291 | R -0.506 | G -0.0459 | W -0.378 | V -0.431 | Q -0.0411 | H -0.132 | N -0.00561 | S -0.15 | E -0.143
L95: P -0.00578 | S -0.00398 | C -0.0111 | Q -0.0116 | G 0.00593 | E -0.00548 | F -0.0596 | V -0.00351 | R -0.104 | N -8.88e-05 | M 0.0014 | Y -0.0972 | T -0.0603 | H -0.053 | I -0.0112 | K -0.0064 | A 0.00636 | W -0.127 | D 0.00648
D94: Q -0.215 | G -0.231 | F -0.287 | P -0.157 | C -0.112 | M -0.104 | L -0.105 | E -0.625 | W -1 | R -0.182 | I -0.0559 | T -0.178 | A -0.329 | Y -0.33 | V -0.128 | S -0.0913 | H -0.136 | K -0.193 | N -0.0146
Y100: E -1.42 | F -0.679 | K -1.96 | G -1.64 | H -1.01 | D -1.79 | L -1.29 | I -1.67 | C -1.66 | A -1.95
D91: V 0.0064 | W -0.00643 | T -0.0112 | Y 0.00276 | S -0.00182
E92: I -0.0645 | Y -0.0538 | T -0.112 | A -0.0671 | S -0.0176 | G -0.183 | H -0.0814 | Q -0.0495 | W -0.152 | P -0.0511 | M -0.0276 | N -0.0998 | F -0.016 | R -0.0994 | L -0.011 | V -0.0677 | C -0.0208 | D -0.0315 | K -0.0744
A99: R -1.8 | N -1.45 | E -1.34 | D -3 | W -1.08 | I -0.617 | V -0.708 | Y -0.837 | Q -2.46 | C -0.408 | G -0.0185 | T -0.459 | F -1.14 | M -0.378 | H -1.07 | L -0.788 | P -0.584 | K -1.18 | S -0.124
R97: P -1.03 | Q 0.00692 | D 0.00527 | H -0.211 | T -0.00706 | G -0.0171 | C 0.00684 | N 0.00607 | M -0.0359 | S -0.0417 | W -0.346 | A 0.00655 | V 0.00683 | L -0.0375 | F -0.0465 | Y -0.0378 | E 0.00633 | I 0.00215 | K -0.0457
